Test results taken from PMC3942423 (Nature chemical biology, 2009).

How the values were obtained:
[1] = substrate: O=[N+]([O-])c1ccc(O[C@H]2O[C@H](CO)[C@@H](O)[C@H](O)[C@@H]2O)cc1; assay: 4NP-Man hydrolysis kinetics; format: biochemical, Bacteroides thetaiotaomicron; settings: other: substrate 4NP-Man
[2] = substrate: OC[C@H]1O[C@H](O[C@H]2[C@@H](O)[C@H](O)[C@@H](CO)O[C@@H]2O)[C@@H](O)[C@@H](O)[C@@H]1O; assay: mannobiose hydrolysis kinetics; format: biochemical, Bacteroides thetaiotaomicron; settings: other: most active mannobiose substrate

B1: Bt3962 (Bacteroides thetaiotaomicron VPI-5482) (protein)
chain: QKQPVDYVNPLMGTDSKISLSNGNTYPAIALPWGMNFWMPQTGKMGDGWAYTYASDKIRGFKQTHQPSPWINDYGQFSIMPMTKQLKIDQDSRASWFSHKAEKATPYYYSVYLSEYNMTTEIAPTERCAYFRFTFPEASDAYVVVDAFDRGSYVKVIPEENKIVGYTTRNSGGVPQNFRNYFVIEFDKPFTFNKVWADYHLVETHLELQSNHVGAAIGFSTKKGEQVHAKVASSFISPEQAELNLKEIGNKTFEQTKEAGRKAWNDVLGRIKVEDDDENRMRTFYSCLYRSVLFPRMFHEVNAKGETVHYSPYNGEIRPGYMFTDTGFWDTFRCLFPFVNLIYPSMGEKMQEGLLNTYLESGFFPEWASPGHRGCMVGNNSASVVADAFMKNVTKADAEKMYEGLLKGANSVHPRVSTTGRRGYEYYNKLGYVPYDVKINENAARTLEYAYDDWCIYRMGEKLGRPAEELELYKSRSQNYRNLFDPETKLMRGKNADGTFQTPFNPFKWGDAFTEGNSWHYTWSVFHDVQGLADLMGGRKMFVSMLDSVFNLPPIFDDSYYGGVIHEIREMEIANMGNYAHGNQPIQHMIYLYNYAGEPWKAQYWLREVMNRLYFATPDGYCGDEDNGQTSAWYVFTALGFYPVCPGSNEYVMGAPYFKKATITLENGKKLEISAPKNSDANRYIRSLNYNGKNYTKNYLNHFDLLKGGRLVFDMDNKPNKGRGINESDFPYSFSRDNK
Km ([1]; enzyme Bt3962, pH 7.0): 5 ± 0.84 mM
kcat ([1]; enzyme Bt3962, pH 7.0): 0.283 ± 0.0267 s⁻¹
kcat/Km ([1]; enzyme Bt3962, pH 7.0): 56.7 M⁻¹ s⁻¹
Km ([2]; enzyme Bt3962, pH 7.0): 0.43 ± 0.052 mM
kcat ([2]; enzyme Bt3962, pH 7.0): 13.7 s⁻¹
kcat/Km ([2]; enzyme Bt3962, pH 7.0): 31700 M⁻¹ s⁻¹

B2: Bt3990 (Bacteroides thetaiotaomicron VPI-5482) (protein)
chain: KDWTQYVNPLMGSQSTFELSTGNTYPAIARPWGMNFWTPQTGKMGDGWQYTYTANKIRGFKQTHQPSPWINDYGQFSIMPIVGQPVFDEEKRASWFAHKGEVATPYYYKVYLAEHDIVTEMTPTERAVLFRFTFPENDHSYVVVDAFDKGSYIKIIPEENKIIGYTTRNSGGVPENFKNYFIIEFDKPFTYKATVENGNLQENVAEQTTDHAGAIIGFKTRKGEQVNARIASSFISFEQAAANMNELGKDNIEQLAQKGKDAWNQVLGKIEVEGGNLDQYRTFYSCLYRSLLFPRKFYELDANGQPIHYSPYNGQVLPGYMFTDTGFWDTFRCLFPLLNLMYPSVNKEMQEGLINTYLESGFFPEWASPGHRGCMVGNNSASILVDAYMKGVKVDDIKTLYEGLIHGTENVHPEVSSTGRLGYEYYNKLGYVPYDVKINENAARTLEYAYDDWCIYRLAKELKRPKKEISLFAKRAMNYKNLFDKESKLMRGRNEDGTFQSPFSPLKWGDAFTEGNSWHYTWSVFHDPQGLIDLMGGKEMFVTMMDSVFAVPPIFDDSYYGQVIHEIREMTVMNMGNYAHGNQPIQHMIYLYDYAGQPWKAQYWLRQVMDRMYTPGPDGYCGDEDNGQTSAWYVFSALGFYPVCPGTDEYVMGTPLFKKATLHFENGNSLVIDAPNNSTENFYIDSMSFNGADHTKNYLRHEDLFKGGTIKVDMSNRPNLNRGTKEEDMPYSFSKE
Km ([1]; enzyme Bt3990, pH 7.0): 4.2 ± 0.42 mM
kcat ([1]; enzyme Bt3990, pH 7.0): 0.0933 ± 0.00467 s⁻¹
kcat/Km ([1]; enzyme Bt3990, pH 7.0): 21.7 M⁻¹ s⁻¹
Km ([2]; enzyme Bt3990, pH 7.0): 0.76 ± 0.11 mM
kcat ([2]; enzyme Bt3990, pH 7.0): 86.7 ± 5 s⁻¹
kcat/Km ([2]; enzyme Bt3990, pH 7.0): 113000 M⁻¹ s⁻¹
